Results reported in patent US20220064674A1 (MILTENYI BIOTEC B V, published 2022).

Biological target: T1, CD62L (L-selectin) expressed on cells (human, UniProt P14151 39-372)
T1 construct: whole, on cells; also called HT1080-CD62L
T1 sequence: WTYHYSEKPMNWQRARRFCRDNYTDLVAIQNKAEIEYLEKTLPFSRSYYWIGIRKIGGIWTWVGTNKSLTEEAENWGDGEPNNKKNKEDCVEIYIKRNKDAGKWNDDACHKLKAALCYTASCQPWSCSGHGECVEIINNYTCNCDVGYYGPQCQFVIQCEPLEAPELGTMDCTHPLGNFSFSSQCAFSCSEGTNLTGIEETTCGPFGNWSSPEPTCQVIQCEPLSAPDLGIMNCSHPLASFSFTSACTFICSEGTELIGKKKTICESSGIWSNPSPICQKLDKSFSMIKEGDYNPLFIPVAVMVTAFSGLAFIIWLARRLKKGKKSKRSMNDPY
Assay: competition and binding assay on PBMC, flow cytometry

B1: CD62L specific antibody derived from the same clone (parental antibody) (antibody, V domains shown)
VH: EVKLVESGGGLVKPGGSLKLSCAASGFTFSSYAMSWVRQTPEKRLEWVASISSGGSTYYPDSVKGRFTISRDNARNILYLQMSSLRSEDTAMYYCARDDDGYYDYWGQGTTLTVSS
VL: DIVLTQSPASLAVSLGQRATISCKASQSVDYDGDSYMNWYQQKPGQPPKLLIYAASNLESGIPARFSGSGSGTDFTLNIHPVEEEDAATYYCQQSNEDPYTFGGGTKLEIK
  binding result: binds
